Each block holds one molecule with its values, some of them ahead of it. Square brackets hold non-standard residues; d marks the D form. Ends that are not written are not given here. pY = N[C@@H](Cc1ccc(OP(=O)(O)O)cc1)C(=O)O
How the values were obtained:
[1] = target: GST-Shc PTB domain fusion protein (human) (UniProt P29353); assay: SPR (Biacore) competition, Table 1
[2] = target: GST-Shc PTB domain fusion protein (human) (UniProt P29353); assay: not stated in Table 2; the same number as the IC50 of Table 1
[3] = target: GST-Shc PTB domain fusion protein (human) (UniProt P29353); assay: not stated in Table 2; presumably as the IC50 of Table 1
[4] = target: GST-Shc PTB domain fusion protein (human) (UniProt P29353); assay: competition with EGF-R for GST-ShcB beads, dose response, anti-phospho-Tyr blot
[5] = target: GST-Shc PTB domain fusion protein (human) (UniProt P29353); assay: SPR (Biacore) competition, Table 1; remark: listed apart in the source

Chain of GST-Shc PTB domain fusion protein (human) (P29353 111-319 limits assumed): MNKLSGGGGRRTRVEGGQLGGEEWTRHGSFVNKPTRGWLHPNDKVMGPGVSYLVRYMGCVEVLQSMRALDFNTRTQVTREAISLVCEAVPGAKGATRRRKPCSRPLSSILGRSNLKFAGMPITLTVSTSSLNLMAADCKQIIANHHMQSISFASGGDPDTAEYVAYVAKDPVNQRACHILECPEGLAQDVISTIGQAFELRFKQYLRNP

fold increase of the affinity against the peptide with Ala at -2 [1]: 10 fold | value printed beside the sequence without a heading [2]: 175 nM
Molecule: Wt NGF receptor phosphopeptide His-Ile-Ile-Glu-Asn-Pro-Gln-P.Tyr-Phe-Ser-Asp

value printed beside the sequence without a heading [3]: 4 µM
Molecule: IENPQ[pY]FSD [Trk wild type truncated phosphopeptide IENPQpYFSD]

percent inhibition at 100 µM [4]: 50%
B1: C-1, Cyclo-(IENPQpYFSPG) (peptide)
peptide: cyclo(IENPQ[pY]FSPG)
SMILES: CC[C@H](C)[C@@H]1NC(=O)CNC(=O)[C@@H]2CCCN2C(=O)[C@H](CO)NC(=O)[C@H](Cc2ccccc2)NC(=O)[C@H](Cc2ccc(OP(=O)(O)O)cc2)NC(=O)[C@H](CCC(N)=O)NC(=O)[C@@H]2CCCN2C(=O)[C@H](CC(N)=O)NC(=O)[C@H](CCC(=O)O)NC1=O

fold lower affinity against a phosphopeptide with an Ile at either position -6 or -5 [5]: 3 fold
Molecule: HAAENPQ[pY]FSD [Ala-6, Ala-5 NGF receptor peptide H-A-A-E-N-P-Q-p.Y-F-S-D]
